Data published in patent EP4818204A1 (Nanjing Leads Biolabs Co., Ltd., dated 2026).
Read-outs that look alike come from different tables or passages of the source.

Tests used:
Experiment in all cases: ELISA, coated protein, antibody at 4 µg/mL
human GDF1 protein [1] = target: T1, human GDF1 protein (human, UniProt P27539 254-372, limits assumed)
T1 construct: Bought
T1 sequence (looked up): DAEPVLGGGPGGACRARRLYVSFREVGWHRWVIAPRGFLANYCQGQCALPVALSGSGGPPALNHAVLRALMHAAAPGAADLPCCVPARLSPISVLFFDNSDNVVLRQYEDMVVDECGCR

human GDF2 protein [2] = target: T2, human GDF2 protein (human, UniProt Q9UK05 320-429)
T2 construct: Bought
T2 sequence (looked up): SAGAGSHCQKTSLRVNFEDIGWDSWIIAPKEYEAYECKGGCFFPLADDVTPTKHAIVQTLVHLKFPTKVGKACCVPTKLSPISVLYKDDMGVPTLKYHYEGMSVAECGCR

human GDF3 protein [3] = target: T3, human GDF3 protein (human, UniProt Q9NR23 251-364, limits assumed)
T3 construct: Bought
T3 sequence (looked up): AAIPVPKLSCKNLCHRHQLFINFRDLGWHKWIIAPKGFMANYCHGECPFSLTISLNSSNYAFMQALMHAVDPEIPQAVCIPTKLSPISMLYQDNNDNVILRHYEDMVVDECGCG

human BMP4 protein [4] = target: T4, human BMP4 protein (human, UniProt P12644 293-408)
T4 construct: Bought
T4 sequence (looked up): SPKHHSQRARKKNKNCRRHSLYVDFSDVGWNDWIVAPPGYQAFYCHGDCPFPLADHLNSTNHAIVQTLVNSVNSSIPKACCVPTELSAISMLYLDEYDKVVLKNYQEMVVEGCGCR

human GDF11 protein [5] = target: T5, human GDF11 protein (human, UniProt O95390 299-407)
T5 construct: Bought
T5 sequence (looked up): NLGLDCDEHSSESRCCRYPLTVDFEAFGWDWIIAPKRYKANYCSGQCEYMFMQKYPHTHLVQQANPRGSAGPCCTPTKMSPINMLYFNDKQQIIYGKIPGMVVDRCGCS

human GDNF protein [6] = target: T6, human GDNF protein (human, UniProt P39905 78-211)
T6 construct: Bought
T6 sequence (looked up): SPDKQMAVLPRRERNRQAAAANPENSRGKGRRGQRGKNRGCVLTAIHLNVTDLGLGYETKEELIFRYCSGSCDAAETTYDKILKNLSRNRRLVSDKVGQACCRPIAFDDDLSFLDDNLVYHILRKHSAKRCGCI

human TGFβ1 protein [7] = target: T7, human TGFβ1 protein (human, UniProt P01137 279-390)
T7 construct: Bought

human GFRα1 protein [8] = target: T8, human GFRα1 protein (human, UniProt P56159 25-429, limits assumed)
T8 construct: Bought
T8 sequence (looked up): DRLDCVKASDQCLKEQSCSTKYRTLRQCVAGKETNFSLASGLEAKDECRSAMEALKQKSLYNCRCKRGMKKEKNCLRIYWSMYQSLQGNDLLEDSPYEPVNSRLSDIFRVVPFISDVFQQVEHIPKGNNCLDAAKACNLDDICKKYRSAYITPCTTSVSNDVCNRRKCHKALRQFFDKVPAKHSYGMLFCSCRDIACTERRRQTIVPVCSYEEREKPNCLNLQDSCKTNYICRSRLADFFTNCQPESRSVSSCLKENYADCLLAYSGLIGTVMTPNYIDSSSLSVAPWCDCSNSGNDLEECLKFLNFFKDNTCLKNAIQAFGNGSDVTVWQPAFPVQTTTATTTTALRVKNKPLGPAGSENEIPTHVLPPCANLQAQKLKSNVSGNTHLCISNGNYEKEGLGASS

human BMP2 protein [9] = target: T9, human BMP2 protein (human, UniProt P12643 283-396)
T9 construct: Bought

human Activin A protein [10] = target: T10, human Activin A protein (human, UniProt P08476 311-426)
T10 construct: Bought; Activin A is by nature a dimer of inhibin beta A chains
T10 sequence (looked up): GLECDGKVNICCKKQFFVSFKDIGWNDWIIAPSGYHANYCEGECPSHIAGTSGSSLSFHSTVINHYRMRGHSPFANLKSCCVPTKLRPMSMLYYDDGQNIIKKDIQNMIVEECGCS

human Activin B protein [11] = target: T11, human Activin B protein (human, UniProt P09529 293-407)
T11 construct: Bought; Activin B is by nature a dimer of inhibin beta B chains
T11 sequence (looked up): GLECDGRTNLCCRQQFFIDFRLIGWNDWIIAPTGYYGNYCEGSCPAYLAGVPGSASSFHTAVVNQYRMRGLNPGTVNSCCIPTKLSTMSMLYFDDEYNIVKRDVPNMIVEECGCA

Human GDF15 protein [12] = target: T12, Human GDF15 protein (human, UniProt Q99988 197-308)
T12 construct: Natural GDF15 is said to be a disulfide-linked homodimer; also called Human-GDF15-his
T12 sequence: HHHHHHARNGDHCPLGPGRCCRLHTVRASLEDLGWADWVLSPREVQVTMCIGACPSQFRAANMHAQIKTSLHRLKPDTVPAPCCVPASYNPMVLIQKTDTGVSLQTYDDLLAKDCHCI

[13] = target: human AMH protein (human) (UniProt P03971)
[14] = target: human GDF8 protein (human) (UniProt O14793)
human GDF1 protein [15] = target: T1, human GDF1 protein; remark: listed apart in the source
human GDF2 protein [16] = target: T2, human GDF2 protein; remark: listed apart in the source
human GDF3 protein [17] = target: T3, human GDF3 protein; remark: listed apart in the source
human BMP4 protein [18] = target: T4, human BMP4 protein; remark: listed apart in the source
human GDF11 protein [19] = target: T5, human GDF11 protein; remark: listed apart in the source
human GDNF protein [20] = target: T6, human GDNF protein; remark: listed apart in the source
human TGFβ1 protein [21] = target: T7, human TGFβ1 protein; remark: listed apart in the source
human GFRα1 protein [22] = target: T8, human GFRα1 protein; remark: listed apart in the source
human BMP2 protein [23] = target: T9, human BMP2 protein; remark: listed apart in the source
human Activin A protein [24] = target: T10, human Activin A protein; remark: listed apart in the source
human Activin B protein [25] = target: T11, human Activin B protein; remark: listed apart in the source
Human GDF15 protein [26] = target: T12, Human GDF15 protein; remark: listed apart in the source
[27] = target: human AMH protein (human) (UniProt P03971); remark: listed apart in the source
[28] = target: human GDF8 protein (human) (UniProt O14793); remark: listed apart in the source

T9 sequence (P12643 283-396 limits assumed): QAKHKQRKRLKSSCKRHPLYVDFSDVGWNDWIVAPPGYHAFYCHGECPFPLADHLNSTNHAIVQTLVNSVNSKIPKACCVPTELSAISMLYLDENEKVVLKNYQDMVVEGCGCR
T7 sequence (P01137 279-390 limits assumed): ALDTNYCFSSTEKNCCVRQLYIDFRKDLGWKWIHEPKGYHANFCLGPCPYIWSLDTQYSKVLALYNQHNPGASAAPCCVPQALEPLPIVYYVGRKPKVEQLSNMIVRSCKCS

## IgG control (Sino Biological, Cat. No.: HG1K) (antibody)
Human GDF1 protein [1]
  OD value (OD 450 nm-620 nm): 0.0416
Human GDF2 protein [2]
  OD value (OD 450 nm-620 nm): 0.0622
Human GDF3 protein [3]
  OD value (OD 450 nm-620 nm): 0.04
Human BMP4 protein [4]
  OD value (OD 450 nm-620 nm): 0.0439
Human GDF11 protein [5]
  OD value (OD 450 nm-620 nm): 0.038
Human GDNF protein [6]
  OD value (OD 450 nm-620 nm): 0.036
Human TGFβ1 protein [7]
  OD value (OD 450 nm-620 nm): 0.0376
Human GFRα1 protein [8]
  OD value (OD 450 nm-620 nm): 0.125
Human BMP2 protein [9]
  OD value (OD 450 nm-620 nm): 0.0463
Human Activin A protein [10]
  OD value (OD 450 nm-620 nm): 0.0524
Human Activin B protein [11]
  OD value (OD 450 nm-620 nm): 0.168
Human GDF15 protein [12]
  OD value (OD 450 nm-620 nm): 0.0386
[13]
  OD value (OD 450 nm-620 nm): 0.0465
[14]
  OD value (OD 450 nm-620 nm): 0.0351
Human GDF1 protein [15]
  OD value (OD 450 nm-620 nm): 0.101
Human GDF2 protein [16]
  OD value (OD 450 nm-620 nm): 0.0444
Human GDF3 protein [17]
  OD value (OD 450 nm-620 nm): 0.0556
Human BMP4 protein [18]
  OD value (OD 450 nm-620 nm): 0.0464
Human GDF11 protein [19]
  OD value (OD 450 nm-620 nm): 0.0659
Human GDNF protein [20]
  OD value (OD 450 nm-620 nm): 0.0493
Human TGFβ1 protein [21]
  OD value (OD 450 nm-620 nm): 0.111
Human GFRα1 protein [22]
  OD value (OD 450 nm-620 nm): 0.0807
Human BMP2 protein [23]
  OD value (OD 450 nm-620 nm): 0.055
Human Activin A protein [24]
  OD value (OD 450 nm-620 nm): 0.0474
Human Activin B protein [25]
  OD value (OD 450 nm-620 nm): 0.082
Human GDF15 protein [26]
  OD value (OD 450 nm-620 nm): 0.043
[27]
  OD value (OD 450 nm-620 nm): 0.0569
[28]
  OD value (OD 450 nm-620 nm): 0.0485
